Assay results taken from patent EP4818204A1 (Nanjing Leads Biolabs Co., Ltd., dated 2026).

Legend:
Assay in all cases: ELISA, coated protein, antibody at 4 µg/mL
human BMP4 protein = biological target: T1, human BMP4 protein (human, UniProt P12644 293-408)
T1 construct: Bought
T1 sequence (looked up): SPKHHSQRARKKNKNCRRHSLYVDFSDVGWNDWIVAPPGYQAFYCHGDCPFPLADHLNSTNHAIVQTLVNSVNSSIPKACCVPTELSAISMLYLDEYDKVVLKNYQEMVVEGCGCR

human Activin A protein = biological target: T2, human Activin A protein (human, UniProt P08476 311-426)
T2 construct: Bought; Activin A is by nature a dimer of inhibin beta A chains
T2 sequence (looked up): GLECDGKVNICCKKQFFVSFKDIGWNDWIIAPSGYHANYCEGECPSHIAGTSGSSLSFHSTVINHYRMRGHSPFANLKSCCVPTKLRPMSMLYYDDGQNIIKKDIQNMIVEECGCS

human GFRα1 protein = biological target: T3, human GFRα1 protein (human, UniProt P56159 25-429, limits assumed)
T3 construct: Bought
T3 sequence (looked up): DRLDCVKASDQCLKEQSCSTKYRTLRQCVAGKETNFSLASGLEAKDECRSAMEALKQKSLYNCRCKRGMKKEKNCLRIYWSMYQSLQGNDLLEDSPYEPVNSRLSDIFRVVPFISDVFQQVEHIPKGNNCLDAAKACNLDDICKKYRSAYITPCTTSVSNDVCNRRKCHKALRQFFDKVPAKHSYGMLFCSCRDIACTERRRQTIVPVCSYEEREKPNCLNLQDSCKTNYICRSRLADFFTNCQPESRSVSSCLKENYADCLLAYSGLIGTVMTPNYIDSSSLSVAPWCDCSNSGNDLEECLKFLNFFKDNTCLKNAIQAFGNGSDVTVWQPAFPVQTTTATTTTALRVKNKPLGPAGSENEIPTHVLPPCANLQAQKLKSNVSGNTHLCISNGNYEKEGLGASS

human Activin B protein = biological target: T4, human Activin B protein (human, UniProt P09529 293-407)
T4 construct: Bought; Activin B is by nature a dimer of inhibin beta B chains
T4 sequence (looked up): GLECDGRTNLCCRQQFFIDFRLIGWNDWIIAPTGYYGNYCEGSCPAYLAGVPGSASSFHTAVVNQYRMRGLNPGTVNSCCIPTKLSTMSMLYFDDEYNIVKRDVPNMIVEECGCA

human GDF3 protein = biological target: T5, human GDF3 protein (human, UniProt Q9NR23 251-364, limits assumed)
T5 construct: Bought
T5 sequence (looked up): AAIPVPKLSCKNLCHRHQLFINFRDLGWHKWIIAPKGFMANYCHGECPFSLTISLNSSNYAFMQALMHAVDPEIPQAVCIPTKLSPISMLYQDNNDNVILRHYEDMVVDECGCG

- OD value (human BMP4 protein): 0.0587 OD 450 nm-620 nm
- OD value (human Activin A protein): 0.0595 OD 450 nm-620 nm
- OD value (human GFRα1 protein): 0.11 OD 450 nm-620 nm
- OD value (human Activin B protein): 0.12 OD 450 nm-620 nm
- OD value (human GDF3 protein): 0.0862 OD 450 nm-620 nm
B1: Hu19C4C7 (antibody, human IgG1, kappa)
heavy: QVQLVQSGAEVKKPGSSVKVSCKASGYSFTGYIMNWVRQAPGQSLEWMGDIDPYYGGPNYNQKFQGRVTITVDKSTSTAYMELSSLRSEDTAVYYCSRRDYNYGSFAYWGQGTLVTVSSASTKGPSVFPLAPSSKSTSGGTAALGCLVKDYFPEPVTVSWNSGALTSGVHTFPAVLQSSGLYSLSSVVTVPSSSLGTQTYICNVNHKPSNTKVDKKVEPKSCDKTHTCPPCPAPEAAGAPSVFLFPPKPKDTLMISRTPEVTCVVVDVSHEDPEVKFNWYVDGVEVHNAKTKPREEQYNSTYRVVSVLTVLHQDWLNGKEYKCKVSNKALPAPIEKTISKAKGQPREPQVYTLPPSREEMTKNQVSLTCLVKGFYPSDIAVEWESNGQPENNYKTTPPVLDSDGSFFLYSKLTVDKSRWQQGNVFSCSVMHEALHNHYTQKSLSLSPGK
light: QIVLTQSPATLSLSPGERATLSCRASSSVNYMHWYQQKPGQAPRPLIYATSNLATGIPARFSGSGSGTDYTLTISSLEPEDFAVYYCQQWSDNPPTFGQGTKLEIKRTVAAPSVFIFPPSDEQLKSGTASVVCLLNNFYPREAKVQWKVDNALQSGNSQESVTEQDSKDSTYSLSSTLTLSKADYEKHKVYACEVTHQGLSSPVTKSFNRGEC
notes: Humanized form of murine 19C4C7; human IgG1 constant region with L234A, L235A, G237A and kappa light chain constant region; also called hu19C4C7-IgG1-mut(L234A,L235A,G237A)
